Our source for the binding result and Kd values is patent US20190071490A1 (BETH ISRAEL DEACONESS MEDICAL CENTER, published 2019).

Where a chain is given by its changes, count along the chain named. Ends that are not written are not given here.

Test [1] addresses T1, Human adrenomedullin (1-52) (human, C-terminal amide).
T1 peptide: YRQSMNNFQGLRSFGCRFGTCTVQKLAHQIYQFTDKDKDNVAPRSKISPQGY
The experiment in a line: Biacore competition: 50 nM G1 Fab with 10 µM peptide over human α-CGRP on chip. An excerpt: (§1) Y axis represents percentage of binding blocked by the presence of the competing peptide compared with the binding in the absence of the competing peptide.
(§2) All these peptides are amidated at the C-terminus.

A further test has as its target T2, Human calcitonin (1-32) (human, C-terminal amide).
T2 peptide: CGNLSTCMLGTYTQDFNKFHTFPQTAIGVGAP
Described as above.
Source text: as §1, §2

A further test addresses T3, Human amylin (1-37) (human, C-terminal amide).
T3 peptide: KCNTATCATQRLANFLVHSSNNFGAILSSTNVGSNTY
Described as above.
Source text: as §1, §2

The next test has as its target T4, human α-CGRP 19-36 (human).
T4 construct: also called 19-36-COOH; peptide fragment 19-36
T4 peptide: SGGVVKNNFVPTNVGSKA-OH
The description is as above.
Source text: as §1, §2

Test [2] deals with T5, rat α-CGRP (1-37) (rat, C-terminal amide; N-terminal biotin when captured on the SA chip).
T5 construct: also called rat α (1-37); α-rat
T5 peptide: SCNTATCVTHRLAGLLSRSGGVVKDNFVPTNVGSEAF
The experiment in a line: Biacore, 37°C, Fab over N-biotinylated CGRP on SA chip, high-resolution two-part experiment. Here is the method:
(§3) Biacore assay for affinity determination. […] All Biacore assays were conducted in HBS-EP running buffer (10 mM HEPES pH 7.4, 150 mM NaCl, 3 mM EDTA, 0.005% v/v polysorbate P20). CGRP surfaces were prepared by diluting the N-biotinylated CGRP to a concentration of less than 0.001 mg/mL into HBS-EP buffer and injecting it across the SA sensor chip using variable contact times. […] Samples were typically injected for 1 minute at 100 μL/min and dissociation times of at least 10 minutes were allowed. […] An entire titration series (typically generated in duplicate) was fit globally to a 1:1 Langmuir binding model using the BIAevaluation program. This returned a unique pair of association and dissociation kinetic rate constants (respectively, kₒₙ and koff) for each binding interaction, whose ratio gave the equilibrium dissociation constant (KD=koff/kₒₙ).
(§4) High-resolution analysis of binding interactions with extremely slow off rates. […] The protocol described above was used with the following modifications.
On the technique in general: Surface plasmon resonance follows binding to a sensor surface in real time, without labels.

The target in test [3] is T6, human α-CGRP 1-37 (WT) (human, C-terminal amide; N-terminal biotin when captured on the SA chip; 125I-labelled in the radioligand assay).
T6 construct: also called α-human
T6 peptide: T5 peptide with S1A, N3D, D25N, E35K
The description is as above. How it is done:
as §3, §4

The target in test [4] is T6, human α-CGRP 1-37 (WT). The experiment in a line: Biacore, 37°C, high-resolution two-part experiment. Here is the method: as §3, §4
For a further test, the target named is T7, human α-CGRP 1-19-COOH (human, ends and bridges not checked).
T7 peptide: ACDTATCVTHRLAGLLSRS-OH
The experiment in a line: Biacore competition: 50 nM G1 Fab with 10 µM peptide over human α-CGRP on chip.

In a further test the target is T8, human α-CGRP 1-13-COOH (human, ends and bridges not checked).
T8 peptide: ACDTATCVTHRLA-OH
The description is as above.

For test [5], the target named is T5, rat α-CGRP (1-37). The experiment in a line: Biacore, 37°C, Fab over CGRP on SA chip. A digest of the protocol:
(§5)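 Fab analyte flowed over N-biotinylated CGRP captured at low density on a streptavidin chip in HBS-EP (pH 7.4), 1-min injections at 100 μL/min, at least 10 min dissociation.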

In test [6] the target is T6, human α-CGRP 1-37 (WT). The test can be described thus: Biacore, 37°C, Fab over CGRP on SA chip. A digest of the protocol:
as §5

The target of test [7] is T5, rat α-CGRP (1-37). The test can be described thus: Biacore, 25°C, Fab over N-biotinylated CGRP on SA chip, high-resolution two-part experiment. How it is done: as §3, §4
Test [8] concerns the target T6, human α-CGRP 1-37 (WT). The description is as above. Here is the method:
as §3, §4

As usually defined, the Kd is the constant that tells how readily two partners part at equilibrium. The low end stands for a tighter complex, the high end for a looser complex.

B1: antibody G1 Fab fragment (Fab, V domains shown)
VH: EVQLVESGGGLVQPGGSLRLSCAASGFTFSNYWISWVRQAPGKGLEWVAEIRSESDASATHYAEAVKGRFTISRDNAKNSLYLQMNSLRAEDTAVYYCLAYFDYGLAIQNYWGQGTLVTVSS
VL: EIVLTQSPATLSLSPGERATLSCKASKRVTTYVSWYQQKPGQAPRLLIYGASNRYLGIPARFSGSGSGTDFTLTISSLEPEDFAVYYCSQSYNYPYTFGQGTKLEIK
For the molecule B1, the binding result (in test [1]; with Human calcitonin (1-32); with Human amylin (1-37); in the test with human α-CGRP 19-36; with human α-CGRP 1-19-COOH; with human α-CGRP 1-13-COOH) was “no binding (tested: 10 µM peptide)” in each case. In addition, the Kd with rat α-CGRP (1-37) [2] turned out to be 2.57 nM; in the test with human α-CGRP 1-37 (WT) [3], 0.063 nM; with human α-CGRP 1-37 (WT) [4], 0.06 nM; with rat α-CGRP (1-37) [5], 2.57 nM; with human α-CGRP 1-37 (WT) [6] it was 0.063 nM; with rat α-CGRP (1-37) [7], 1.22 nM. This molecule also displayed a Kd with human α-CGRP 1-37 (WT) [8] of 0.042 nM.
